Source: patent publication US20180002754A1

Legend:
[1] = molecular target: Frizzled-2 (human Fzd2) (human) (UniProt Q14332); experiment: SPR (Biacore, by Precision Antibody); antibody as ligand, Frizzled-2 as analyte at 0-500 nM
[2] = molecular target: Frizzled-2 (human Fzd2) (human) (UniProt Q14332); experiment: SPR (Biacore) binding analysis, text to Table 1 and FIG. 10
[3] = molecular target: Frizzled-2 (human Fzd2) (human) (UniProt Q14332); experiment: SPR (BioCore study performed by Precision Antibody), legend of FIG. 10

Sequence of UniProt Q14332 (Q14332 24-247 limits assumed): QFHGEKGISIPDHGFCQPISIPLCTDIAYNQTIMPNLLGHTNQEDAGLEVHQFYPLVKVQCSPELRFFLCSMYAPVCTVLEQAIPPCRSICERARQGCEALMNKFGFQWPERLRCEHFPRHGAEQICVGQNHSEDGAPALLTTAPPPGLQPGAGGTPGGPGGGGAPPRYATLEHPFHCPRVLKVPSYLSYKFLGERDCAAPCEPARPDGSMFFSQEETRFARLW

Ka [1]: 5.2e+07 M⁻¹ | Kd [1]: 19 nM | koff [1]: 0.00074 s⁻¹ | kon [1]: 39000 M⁻¹ s⁻¹ | Kd [2]: < 20 nM | Kd [3]: 20 nM
Substance: anti-Fzd2 antibody (R & D Systems; MAB1307)
